Here are results for one protein from article doi:10.1101/2025.01.11.632520, “A De Novo Design Strategy to Convert FAcD from Dimer to Active Monomer” (bioRxiv, 2025).

The stoichiometry N is the number of molecules, sites or subunits per partner or assembly.

The series concerns the molecule itself. Put plainly: native MS; proteins buffer-exchanged into 0.2 M ammonium acetate (pH 7); Q-Exactive Plus Orbitrap, collision voltage 20 V; room temperature; self-association (dimer vs monomer).

B1: Fluoroacetate dehalogenase (FAcD), wild-type (enzyme, UniProt Q6NAM1 1-302, looked up)
chain: MPDLADLFPGFGSEWINTSSGRIFARVGGDGPPLLLLHGFPQTHVMWHRVAPKLAERFKVIVADLPGYGWSDMPESDEQHTPYTKRAMAKQLIEAMEQLGHVHFALAGHDRGARVSYRLALDSPGRLSKLAVLDILPTYEYWQRMNRAYALKIYHWSFLAQPAPLPENLLGGDPDFYVKAKLASWTRAGDLSAFDPRAVEHYRIAFADPMRRHVMCEDYRAGAYADFEHDKIDVEAGNKIPVPMLALWGASGIAQSAATPLDVWRKWASDVQGAPIESGHFLPEEAPDQTAEALVRFFSAAP
notes: Fluoroacetate dehalogenase (FAcD), gene Rpa1163, residues 1-302; His6-SUMO tag cleaved off by ULP1; Homodimer by native MS; also called WT; WT-Di; source: E. coli BL21(DE3), purified (nickel column, SEC); not shown: His6, N-terminal, cleaved; SUMO, N-terminal, cleaved
For the protein B1, the “stoichiometry N” value was 2.
